Reference: article PMC5575276

How the values were obtained:
[1] = biological target: recombinant hexa-his-streptavidin (UniProt P22629); experiment: non-denaturing SDS-PAGE; purified and refolded protein on SDS-PAGE under non-denaturing against denaturing conditions
[2] = biological target: TLM-core protein (2xTLM-HA-HBV core with strep-tag III in the spike tip), assembled to TLM-carrier capsid (hepatitis B virus) (UniProt P03146); experiment: SPR; Biacore T200; TLM-carrier capsid (TLM-core protein) immobilised on a CM5 chip; streptavidin injected at five concentrations (4.7-75.7 nM) or streptavidin-Ova at six concentrations (1.9-62.5 nM); fitted with the heterogeneous ligand and the bivalent analyte models (1:1 model fitted poorly)
UniProt P03146, sequence (P03146 whole entry, the tested form may be a part): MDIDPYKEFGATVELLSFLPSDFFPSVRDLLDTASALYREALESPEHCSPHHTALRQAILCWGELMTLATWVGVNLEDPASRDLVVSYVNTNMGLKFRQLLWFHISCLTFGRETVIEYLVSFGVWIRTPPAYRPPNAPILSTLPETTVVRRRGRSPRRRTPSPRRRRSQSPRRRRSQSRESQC

[3] = biological target: streptavidin-Ova fusion protein (streptavidin, hexa-his tag, ovalbumin); experiment: non-denaturing SDS-PAGE; purified and refolded protein on SDS-PAGE under non-denaturing against denaturing conditions
[4] = biological target: TLM-core protein (2xTLM-HA-HBV core with strep-tag III in the spike tip), assembled to TLM-carrier capsid (hepatitis B virus) (UniProt P03146)

| Substance | stoichiometry N [1] | KD2 (heterogeneous ligand model, set 2, strong interaction) [2] [nM] | Ka1 (on-rate, bivalent analyte model, step 1) [2] [M^- s^−1] | Ka2 (on-rate, bivalent analyte model, step 2) [2] [RU^- s^-] | Ka2 (on-rate, heterogeneous ligand model, set 2, strong interaction) [2] [M^- s^−1] | Kd1 (off-rate, bivalent analyte model, step 1) [2] [s⁻¹] | Kd2 (off-rate, bivalent analyte model, step 2) [2] [s⁻¹] | Kd2 (off-rate, heterogeneous ligand model, set 2, strong interaction) [2] [s⁻¹] | stoichiometry N [3] | IFN-γ secreted (ELISA, 72 h) by OT-I CD8+ T-cells co-cultured with BMDCs: Ova-loaded TLM-carrier capsid compared with free streptavidin-Ova [4] [fold] | dissociation half-life (t 1/2) of the strong binding interaction [2] [min] |
| --- | --- | --- | --- | --- | --- | --- | --- | --- | --- | --- | --- |
| recombinant hexa-his-streptavidin (from UniProt P22629 25-183) (natural protein) | 4 | 4.74 | 146000 | 8.16e-05 | 397000 | 0.0213 | 0.00126 | 0.00188 | – | – | – |
| streptavidin-Ova fusion protein (streptavidin, hexa-his tag, ovalbumin) | – | 1.97 | 94200 | 0.000428 | 356000 | 0.0104 | 0.000823 | 0.0007 | 4 | > 10 | 16.5 |
